Experiments:
[1] = molecular target: T1, canine CD20 on cells (HEK293, MDCK II, CLBL-1 or native B cells) (canine, UniProt Q3C2E2 1-297); test: cell-based or functional assay
T1 chain: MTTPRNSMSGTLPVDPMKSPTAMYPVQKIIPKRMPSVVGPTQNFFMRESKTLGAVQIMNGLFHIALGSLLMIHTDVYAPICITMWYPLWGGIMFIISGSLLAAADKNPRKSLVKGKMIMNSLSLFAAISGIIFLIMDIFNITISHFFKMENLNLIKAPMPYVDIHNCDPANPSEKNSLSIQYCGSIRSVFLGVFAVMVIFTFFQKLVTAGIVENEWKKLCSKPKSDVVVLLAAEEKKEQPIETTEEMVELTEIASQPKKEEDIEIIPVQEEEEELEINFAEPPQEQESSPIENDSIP

[2] = molecular target: canine CD3 on canine T cells (canine PBMC) (canine, UniProt P27597 22-202); test: cell-based or functional assay
[3] = molecular target: T2, canine CD3εδ-Fc (heterodimer of canine CD3ε-hIgG4PE-knob and canine CD3δ-hIgG4PE-hole) (canine); test: SPR (Biacore 8K), CD3εδ-Fc amine-coupled to CM5 chip, multi-cycle kinetics, antibody 600-7.4 nM
T2 construct: also called CD3εδ-Fc fusion protein; copies: 1 + 1
Description: Binding affinity of shortlisted candidates, described in Example 3, were assessed using Biacore 8K (Cytiva). Briefly, a CM5 Sensor Chip (Cytiva) was docked onto a Biacore 8K, equilibrated for 30′ at RT and then Running Buffer (10 mM HEPES pH6 150 mM NaCl 3 mM EDTA and 0.005% Tween20) was applied to the SPR chip surface. Canine CD3εδ-Fc was diluted into 10 mM acetate buffer pH4.5 and immobilised using standard amine coupling reaction. Antibodies dilutions were prepared by diluting the shortlisted candidates from 600 nM to 7.4 nM (5 concentrations with 1:3 dilutions) in running buffer and kinetics was assessed using multi-cycle kinetics method (120 sec association-300 sec dissociation). Kinetics and/or Affinity quantification was performed using Biacore Insight following standard analyses methods.

T2 sequence (chain, as listed by the source mutant limits assumed): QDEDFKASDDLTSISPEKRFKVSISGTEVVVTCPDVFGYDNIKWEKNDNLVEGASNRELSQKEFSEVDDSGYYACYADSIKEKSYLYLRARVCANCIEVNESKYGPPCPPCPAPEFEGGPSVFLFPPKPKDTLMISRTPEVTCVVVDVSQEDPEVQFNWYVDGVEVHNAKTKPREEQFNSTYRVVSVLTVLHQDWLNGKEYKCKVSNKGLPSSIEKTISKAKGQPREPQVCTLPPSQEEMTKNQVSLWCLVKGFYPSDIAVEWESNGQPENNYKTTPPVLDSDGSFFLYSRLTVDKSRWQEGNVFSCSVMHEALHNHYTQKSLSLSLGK
Sequence of canine CD3 on canine T cells (canine PBMC) (P27597 22-202 limits assumed, chain 1 of 3): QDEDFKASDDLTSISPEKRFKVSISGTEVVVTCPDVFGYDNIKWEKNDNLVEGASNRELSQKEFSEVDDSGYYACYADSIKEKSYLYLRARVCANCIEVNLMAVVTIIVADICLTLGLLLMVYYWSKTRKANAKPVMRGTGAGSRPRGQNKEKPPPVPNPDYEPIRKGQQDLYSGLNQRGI
Sequence of canine CD3 on canine T cells (canine PBMC) (chain, as listed by the source limits assumed, chain 2 of 3): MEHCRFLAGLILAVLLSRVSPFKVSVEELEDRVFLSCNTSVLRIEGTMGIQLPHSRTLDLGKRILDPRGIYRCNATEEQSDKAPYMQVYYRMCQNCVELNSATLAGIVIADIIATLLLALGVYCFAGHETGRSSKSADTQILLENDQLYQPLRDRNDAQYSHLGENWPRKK
Sequence of canine CD3 on canine T cells (canine PBMC) (chain, as listed by the source limits assumed, chain 3 of 3): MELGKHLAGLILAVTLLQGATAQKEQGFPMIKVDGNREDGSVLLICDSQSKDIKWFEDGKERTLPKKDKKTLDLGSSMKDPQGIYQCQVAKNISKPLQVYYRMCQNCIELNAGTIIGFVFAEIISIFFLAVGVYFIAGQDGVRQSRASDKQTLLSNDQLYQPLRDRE

B1: PMX172VH/PMX234VH/PMX172VL (bispecific antibody, V domains shown)
VH 1: EVQLVESGGDLVKPGGSLRLSCVASGFTFSSYHMSWVRQAPGKGLQWVAYSNSGGSRTSYADAVKGRFTISRDNAKNTLYLQMNSLRAEDTAVYYCASEGGGGRYGYKDYGMDYWGHGTSLFVSS
VH 2: ELQLVESGGDLVKPGGSLRLSCVASGFTFSRYYLNWVRQAPGKGLQWVAFITSGGSSTNYADAVKGRFTISRDNAKNTLYLQMNSLRAEDTAVYYCTSFDSWGQGTLVTVSS
VL: SYVLTQLPSKNVTLKQPAHITCGGDNIGSKSVHWYQQKLGQAPVLIIYYDSSRPTGIPERFSGANSGNTATLTISGALAEDEADYYCQVWDSSAKAWVFGEGTQLTVL
EC50 (nM), bispecific killing (FIG. 15) [1]: 0.412 nM

B2: PMX172VH/PMX229VH/PMX172VL (bispecific antibody, V domains shown)
VH 1: EVQLVESGGDLVKPGGSLRLSCVASGFTFSSYHMSWVRQAPGKGLQWVAYSNSGGSRTSYADAVKGRFTISRDNAKNTLYLQMNSLRAEDTAVYYCASEGGGGRYGYKDYGMDYWGHGTSLFVSS
VH 2: EVQLVESGGDLVKPGGSLRLSCVASGITFSRYHMSWVRQAPGKGLQWVAFINTGRSSTNYADAVAGRFTISRDNAKNTLYLQMNGLTVEDTAVYYCSTLDYWGQGTLVTVSS
VL: SYVLTQLPSKNVTLKQPAHITCGGDNIGSKSVHWYQQKLGQAPVLIIYYDSSRPTGIPERFSGANSGNTATLTISGALAEDEADYYCQVWDSSAKAWVFGEGTQLTVL
EC50 (nM), bispecific killing (FIG. 15) [1]: 1.02 nM

B3: PMX172VH/PMX235VH/PMX172VL (bispecific antibody, V domains shown)
VH 1: EVQLVESGGDLVKPGGSLRLSCVASGFTFSSYHMSWVRQAPGKGLQWVAYSNSGGSRTSYADAVKGRFTISRDNAKNTLYLQMNSLRAEDTAVYYCASEGGGGRYGYKDYGMDYWGHGTSLFVSS
VH 2: EVQLVESGGDLVKPGGSLRLSCVASGITFSRYYMNWVRQAPGKGLQWVAYINTGESSTIYSDAVKGRFTISRDNAKNTLYLQMNSLRAEDTAVYYCTTLEYWGQGTLVTVSS
VL: SYVLTQLPSKNVTLKQPAHITCGGDNIGSKSVHWYQQKLGQAPVLIIYYDSSRPTGIPERFSGANSGNTATLTISGALAEDEADYYCQVWDSSAKAWVFGEGTQLTVL
EC50 (nM), bispecific killing (FIG. 15) [1]: 0.445 nM

B4: PMX172VH/PMX240VH/PMX172VL (bispecific antibody, V domains shown)
VH 1: EVQLVESGGDLVKPGGSLRLSCVASGFTFSSYHMSWVRQAPGKGLQWVAYSNSGGSRTSYADAVKGRFTISRDNAKNTLYLQMNSLRAEDTAVYYCASEGGGGRYGYKDYGMDYWGHGTSLFVSS
VH 2: EVQLVESGGDLVKPGGSLRLSCVASGLTFSRYHMSWVRQAPGKGLQWVAFINSGRSDTTYADAVKGRFTISRDNAKNTLYLQMNSLRAEDTAVYYCTTFDYWGQGTLVTVSS
VL: SYVLTQLPSKNVTLKQPAHITCGGDNIGSKSVHWYQQKLGQAPVLIIYYDSSRPTGIPERFSGANSGNTATLTISGALAEDEADYYCQVWDSSAKAWVFGEGTQLTVL
EC50 (nM), bispecific killing (FIG. 15) [1]: 0.341 nM

B5: PMX184 in bispecific format (canine CD3 arm PMX184 x Rituximab arm, human IgG4PE knob-in-hole) (bispecific antibody)
heavy 1: ELTLQESGPGLVKPSQTLSLTCGVSGGSVTRSHYWNWVRQRPGRGLEWMGYWTGSTNYNPAFQGRISITADTAKNQFSLQLRSMTTEDTAVYFCARETTIPTFFFDYWGQGTLVTVSSASTKGPSVFPLAPCSRSTSESTAALGCLVKDYFPEPVTVSWNSGALTSGVHTFPAVLQSSGLYSLSSVVTVPSSSLGTKTYTCNVDHKPSNTKVDKRVESKYGPPCPPCPAPEFEGGPSVFLFPPKPKDTLMISRTPEVTCVVVDVSQEDPEVQFNWYVDGVEVHNAKTKPREEQFNSTYRVVSVLTVLHQDWLNGKEYKCKVSNKGLPSSIEKTISKAKGQPREPQVYTLPPSQCEMTKNQVSLSCAVKGFYPSDIAVEWESNGQPENNYKTTPPVLDSDGSFFLVSRLTVDKSRWQEGNVFSCSVMHEALHNRFTQKSLSLSLGK
light 1: SYVLTQLPSKNVTLKQPAHITCGGDNIGSKSVHWYQQKLGQAPVLIIYYDSSRPTGIPERFSGANSGNTATLTISGALAEDEADYYCQVWDSGAKAWVFGEGTQLTVLRTVAAPSVFIFPPSDEQLKSGTASVVCLLNNFYPREAKVQWKVDNALQSGNSQESVTEQDSKDSTYSLSSTLTLSKADYEKHKVYACEVTHQGLSSPVTKSFNRGEC
heavy 2: not shown
light 2: QIVLSQSPAILSASPGEKVTMTCRASSSVSYIHWFQQKPGSSPKPWIYATSNLASGVPVRFSGSGSGTSYSLTISRVEAEDAATYYCQQWTSNPPTFGGGTKLEIKRTVAAPSVFIFPPSDEQLKSGTASVVCLLNNFYPREAKVQWKVDNALQSGNSQESVTEQDSKDSTYSLSSTLTLSKADYEKHKVYACEVTHQGLSSPVTKSFNRGEC
EC50 (M) of killing potency, bispecific killing of hCD20+GFP MDCK II cells by canine PBMC [2]: 2.55e-08 M
Kd [3]: 99.8 nM

B6: PMX185 in bispecific format (canine CD3 arm PMX185 x Rituximab arm, human IgG4PE knob-in-hole) (bispecific antibody)
heavy 1: EVQLVESGGDLVKPGGSLRLSCVASGFTFSSYHMSWVRQAPGKGLQWVASINSGGSRTSYVDAVKGRFTISRDNAKKTLYLQMNSLRAEDTAVYYCASGRTGPKLGLGDYGMDSWGHGTSLFVSSASTKGPSVFPLAPCSRSTSESTAALGCLVKDYFPEPVTVSWNSGALTSGVHTFPAVLQSSGLYSLSSVVTVPSSSLGTKTYTCNVDHKPSNTKVDKRVESKYGPPCPPCPAPEFEGGPSVFLFPPKPKDTLMISRTPEVTCVVVDVSQEDPEVQFNWYVDGVEVHNAKTKPREEQFNSTYRVVSVLTVLHQDWLNGKEYKCKVSNKGLPSSIEKTISKAKGQPREPQVYTLPPSQCEMTKNQVSLSCAVKGFYPSDIAVEWESNGQPENNYKTTPPVLDSDGSFFLVSRLTVDKSRWQEGNVFSCSVMHEALHNRFTQKSLSLSLGK
light 1: SYVLTQLPSKNVTLKQPAHITCGGDNIGSKSVHWYQQKLGQAPVMIIYYDSSRPTGIPERFSGANSGNTATLTISGALAEDEADYYCQVWDSSAKAWVFGEGTQLTVLRTVAAPSVFIFPPSDEQLKSGTASVVCLLNNFYPREAKVQWKVDNALQSGNSQESVTEQDSKDSTYSLSSTLTLSKADYEKHKVYACEVTHQGLSSPVTKSFNRGEC
heavy 2: not shown
light 2: QIVLSQSPAILSASPGEKVTMTCRASSSVSYIHWFQQKPGSSPKPWIYATSNLASGVPVRFSGSGSGTSYSLTISRVEAEDAATYYCQQWTSNPPTFGGGTKLEIKRTVAAPSVFIFPPSDEQLKSGTASVVCLLNNFYPREAKVQWKVDNALQSGNSQESVTEQDSKDSTYSLSSTLTLSKADYEKHKVYACEVTHQGLSSPVTKSFNRGEC
EC50 (M) of killing potency, bispecific killing of hCD20+GFP MDCK II cells by canine PBMC [2]: 4.79e-09 M
Kd [3]: 72.1 nM

B7: PMX188 in bispecific format (canine CD3 arm PMX188 x Rituximab arm, human IgG4PE knob-in-hole) (bispecific antibody)
heavy 1: EVQLVESGGDLVKPGGSLRLSCVASGFTFSSYHMSWVRQAPGKGLQWVASINSGGSRTSYVDAVKGRFTISRDNAKKTLYLQMNSLRAEDTAVYYCASGRTGPKLGLGDYGMDSWGHGTSLFVSSASTKGPSVFPLAPCSRSTSESTAALGCLVKDYFPEPVTVSWNSGALTSGVHTFPAVLQSSGLYSLSSVVTVPSSSLGTKTYTCNVDHKPSNTKVDKRVESKYGPPCPPCPAPEFEGGPSVFLFPPKPKDTLMISRTPEVTCVVVDVSQEDPEVQFNWYVDGVEVHNAKTKPREEQFNSTYRVVSVLTVLHQDWLNGKEYKCKVSNKGLPSSIEKTISKAKGQPREPQVYTLPPSQCEMTKNQVSLSCAVKGFYPSDIAVEWESNGQPENNYKTTPPVLDSDGSFFLVSRLTVDKSRWQEGNVFSCSVMHEALHNRFTQKSLSLSLGK
light 1: SYVLTQLPSKNVTLKQPAHITCGGDNIGSKSVHWYQQKLGQAPILIIYYDSSRPTGIPERFSGANSGNTATLTISGALAEDEADYYCQVWDSSAKAWVFGEGTQLTVLRTVAAPSVFIFPPSDEQLKSGTASVVCLLNNFYPREAKVQWKVDNALQSGNSQESVTEQDSKDSTYSLSSTLTLSKADYEKHKVYACEVTHQGLSSPVTKSFNRGEC
heavy 2: not shown
light 2: QIVLSQSPAILSASPGEKVTMTCRASSSVSYIHWFQQKPGSSPKPWIYATSNLASGVPVRFSGSGSGTSYSLTISRVEAEDAATYYCQQWTSNPPTFGGGTKLEIKRTVAAPSVFIFPPSDEQLKSGTASVVCLLNNFYPREAKVQWKVDNALQSGNSQESVTEQDSKDSTYSLSSTLTLSKADYEKHKVYACEVTHQGLSSPVTKSFNRGEC
EC50 (M) of killing potency, bispecific killing of hCD20+GFP MDCK II cells by canine PBMC [2]: 8.23e-09 M
Kd [3]: 292 nM

B8: PMX187 in bispecific format (canine CD3 arm PMX187 x Rituximab arm, human IgG4PE knob-in-hole) (bispecific antibody)
heavy 1: EVQLVESGGDLVKPGGSLRLSCVASGFTFSSYHMSWVRQAPGKGLQWVASINSGGSRTSYVDAVKGRFTISRDNAKNTLYLQMNSLRAEDTAVYYCASGRTGPKLGLGDYGMDSWGHGTSLFVSSASTKGPSVFPLAPCSRSTSESTAALGCLVKDYFPEPVTVSWNSGALTSGVHTFPAVLQSSGLYSLSSVVTVPSSSLGTKTYTCNVDHKPSNTKVDKRVESKYGPPCPPCPAPEFEGGPSVFLFPPKPKDTLMISRTPEVTCVVVDVSQEDPEVQFNWYVDGVEVHNAKTKPREEQFNSTYRVVSVLTVLHQDWLNGKEYKCKVSNKGLPSSIEKTISKAKGQPREPQVYTLPPSQCEMTKNQVSLSCAVKGFYPSDIAVEWESNGQPENNYKTTPPVLDSDGSFFLVSRLTVDKSRWQEGNVFSCSVMHEALHNRFTQKSLSLSLGK
light 1: SYVLTQLPSKNVTLKQPAHITCGGDNIGSKSVHWYQQKLGQAPVLIIYYDSSRPTGIPERFSGANSGNTATLTISGALAEDEADYYCQVWDSSAKAWVFGAGTQLTVLRTVAAPSVFIFPPSDEQLKSGTASVVCLLNNFYPREAKVQWKVDNALQSGNSQESVTEQDSKDSTYSLSSTLTLSKADYEKHKVYACEVTHQGLSSPVTKSFNRGEC
heavy 2: not shown
light 2: QIVLSQSPAILSASPGEKVTMTCRASSSVSYIHWFQQKPGSSPKPWIYATSNLASGVPVRFSGSGSGTSYSLTISRVEAEDAATYYCQQWTSNPPTFGGGTKLEIKRTVAAPSVFIFPPSDEQLKSGTASVVCLLNNFYPREAKVQWKVDNALQSGNSQESVTEQDSKDSTYSLSSTLTLSKADYEKHKVYACEVTHQGLSSPVTKSFNRGEC
EC50 (M) of killing potency, bispecific killing of hCD20+GFP MDCK II cells by canine PBMC [2]: 1.14e-08 M
Kd [3]: 106 nM
